# Assay results: patent US20240344138A1, “TARGETED THERAPIES IN CANCER” (Feng Biosciences, Inc, priority 2021, published 2024)
# B1: PARPi/Navicixizumab (antibody, chains of the INN, looked up, V domains shown)
# VH: QVQLVQSGAEVKKPGASVKISCKASGYSFTAYYIHWVKQAPGQGLEWIGYISNYNRATNYNQKFKGRVTFTTDTSTSTAYMELRSLRSDDTAVYYCARDYDYDVGMDYWGQGTLVTVSS
# VL: DIVMTQSPDSLAVSLGERATISCRASESVDNYGISFMKWFQQKPGQPPKLLIYAASNQGSGVPDRFSGSGSGTDFTLTISSLQAEDVAVYYCQQSKEVPWTFGGGTKVEIK
# VH2: QVQLVQSGAEVKKPGASVKVSCKASGYTFTNYWMHWVRQAPGQGLEWMGDINPSNGRTSYKEKFKRRVTLSVDKSSSTAYMELSSLRSEDTAVYFCTIHYDDKYYPLMDYWGQGTLVTVSS
# VL2: B1 VL
# modifications: with PARP inhibitor
# B2: PARPi/Immune Checkpoint Inhibitor/Navicixizumab (antibody, chains of the INN, looked up, V domains shown)
# VH: B1 VH
# VL: B1 VL
# VH2: B1 VH2
# VL2: B1 VL
# modifications: with PARP inhibitor and checkpoint inhibitor
# B3: PARPi/immune checkpoint inhibitor/Navicixumab (antibody, chains of the INN, looked up, V domains shown)
# VH: B1 VH
# VL: B1 VL
# VH2: B1 VH2
# VL2: B1 VL
# modifications: with PARP inhibitor and checkpoint inhibitor
# B4: Navixicizumab (antibody, chains of the INN, looked up, V domains shown)
# VH: B1 VH
# VL: B1 VL
# VH2: B1 VH2
# VL2: B1 VL
# B5: PARPi/Navicixumab (antibody, chains of the INN, looked up, V domains shown)
# VH: B1 VH
# VL: B1 VL
# VH2: B1 VH2
# VL2: B1 VL
# modifications: with PARP inhibitor
# B6: PARPi/Immune Checkpoint Inhibitor/Navixicizumab (antibody, chains of the INN, looked up, V domains shown)
# VH: B1 VH
# VL: B1 VL
# VH2: B1 VH2
# VL2: B1 VL
# modifications: with PARP inhibitor and checkpoint inhibitor
# B7: bavituximab and an anti-PD-1 checkpoint inhibitor: phosphotidylserine-targeting antibody bavituximab in combination with anti-PD-1 (antibody, chains of the INN, looked up, V domains shown)
# VH: EVQLQQSGPELEKPGASVKLSCKASGYSFTGYNMNWVKQSHGKSLEWIGHIDPYYGDTSYNQKFRGKATLTVDKSSSTAYMQLKSLTSEDSAVYYCVKGGYYGHWYFDVWGAGTTVTVSS
# VL: DIQMTQSPSSLSASLGERVSLTCRASQDIGSSLNWLQQGPDGTIKRLIYATSSLDSGVPKRFSGSRSGSDYSLTISSLESEDFVDYYCLQYVSSPPTFGAGTKLELK
# modifications: plus anti-PD-1 checkpoint inhibitor
# B8: Bavituximab plus radiation (antibody, chains of the INN, looked up, V domains shown)
# VH: B7 VH
# VL: B7 VL
# modifications: plus radiation
# Key:
# [1] = tested on: advanced colorectal cancers metastatic to liver (mCRC); details: 3L+ mCRC metastatic to liver; cited from earlier work
# [2] = tested on: platinum-resistant or platinum-sensitive recurrent ovarian cancer; experiment: Clinical trial of PARP inhibitor and navicixizumab in PARP naive and PARP resistant cohorts, ORR by TME phenotype; format: in vivo, human
# Protocol: A clinical trial is run to determine whether ovarian cancer tumor microenvironment phenotypes correlate to clinical responses when patients are treated with a PARP inhibitor, and navicixizumab in PARP naïve patients or patients that previously progressed on PARP inhibitor. The analysis includes samples from two different cohorts (one consisting of PARP inhibitor naïve patients and one consisting of PARP resistant patients). 40 patients from each cohort are randomized to 2 different treatment arms (20 patients in each arm). Patients are randomized to receive either a PARP inhibitor in combination with navicixizumab or PARP inhibitor monotherapy (PARP naïve cohort) or PARP inhibitor in combination with navicixizumab or navicixizumab monotherapy (PARP resistant). RNA gene signatures are analyzed from tumor samples acquired before the treatments and TME phenotypes are determined. Patients are followed for clinical response.
# Ovarian cancer patients are randomized to receiving a regimen of PARP inhibitor (Olaparib, Rucaparib, Niraparib, etc.) plus navicixizumab, PARP monotherapy (PARP naive) or Navicixizumab monotherapy. The combination of PARP inhibitor/Navicixizumab increases overall response rate in patients with recurrent ovarian cancer compared to navicixizumab alone in both the PARP naive and PARP resistant cohorts as shown in TABLE 35. […] Eighty (80) total patients are enrolled, 20 in each of the treatment groups across the two cohorts with equal representation across the 4 stromal phenotypes (5 in each phenotype per treatment group). The correlation between each TME phenotype is tested against clinical outcome data. In immune suppressed (IS), and angiogenic (A) patients the use of the regimen of PARPi/Navicixizumab confers benefit in comparison to patients classified to immune active (IA) and immune desert (ID) TME phenotype classes as shown in the TABLE 36.
# [3] = tested on: platinum-resistant or platinum-sensitive recurrent triple negative breast cancer; experiment: Clinical trial of PARP inhibitor, immune checkpoint inhibitor and navicixizumab, ORR by TME phenotype; format: in vivo, human
# Protocol: A clinical trial is run to determine whether the triple negative breast cancer (TNBC) tumor microenvironment phenotypes correlate to clinical responses when patients are treated with a PARP inhibitor, an immune checkpoint inhibitor, and Navicixizumab after recurrence on platinum-based chemotherapy. The analysis includes samples from two different cohorts (one consisting of platinum-sensitive patients and one consisting of platinum-resistant patients). 40 patients from each cohort are randomized to 2 different treatment arms (20 patients in each arm). Patients are randomized to receive either (i) a PARP inhibitor and an immune checkpoint inhibitor or (ii) a PARP inhibitor, an immune checkpoint inhibitor and Navicixizumab. RNA gene signatures are analyzed from tumor samples acquired before the treatments and TME phenotypes are determined. Patients are followed for clinical response.
# TNBC patients are randomized to receiving a regimen of PARP inhibitor (olaparib, rucaparib, niraparib, etc.) plus an immune checkpoint inhibitor (anti-PD-(L)1—i.e., an inhibitor to PD-1 or PD-L1) therapy, or a regimen of PARP inhibitor/immune checkpoint inhibitor/Navicixizumab. The combination of PARP inhibitor/immune checkpoint inhibitor/Navicixizumab increases overall response rate in patients with TNBC compared to the regimen of PARP inhibitor/immune checkpoint inhibitor alone in both the platinum-sensitive and platinum-resistant cohorts as shown in TABLE 37. […] Eighty (80) total patients are enrolled, 20 in each of the treatment groups across the two cohorts with equal representation across the 4 stromal phenotypes (5 in each phenotype per treatment group). The correlation between each TME phenotype is tested against clinical outcome data. In immune active (IA), immune suppressed (IS), and angiogenic (A) patients the use of the regimen of PARPi/immune checkpoint inhibitor/Navicixizumab confers benefit in comparison to patients classified to immune desert (ID) TME phenotype classes as shown in the TABLE 38.
# [4] = tested on: colorectal cancer in dMMR or MSI-H status patients; experiment: Clinical trial of bavituximab and an anti-PD-1 checkpoint inhibitor in dMMR or MSI-H colorectal cancer, outcome by TME phenotype; format: in vivo, human
# Protocol: A clinical trial is run to determine whether colorectal cancer TME phenotypes correlate to clinical responses when patients with dMMR or MSI-H status are treated with a combination of a checkpoint inhibitor and bavituximab. The analysis includes 40 colorectal cancer tumor samples.
# An anti-PD-1 checkpoint inhibitor is known to increase PFS and OS in dMMR or MSI-H status patients with advanced colorectal cancer (CRC), compared to chemotherapy. CRC patients with dMMR or MSI-H have the option of anti-PD-(L)1 after advancement on appropriate front-line therapy. Patients are classified according to an ANN method such as the TME Panel-1 classifier. […] RNA gene signatures are analyzed from biopsy samples prior to treatment with anti-PD-1. The TME phenotypes are correlated with ORR and with 20-week PFS. […] 40 patients are enrolled, 10 in each of the 4 TME phenotypes. The correlation between each tumor TME phenotype is tested against clinical outcome data. In IA or IS patients the use of bavituximab and anti-PD-(L)1 confers gains in comparison to patients classified to angiogenic (A), and immune desert (ID) TME phenotypes as shown in TABLE 18.
# melanoma = experiment: Phase 2 trial of adjuvant bavituximab and radiation after neoadjuvant immune checkpoint inhibitor, outcome by TME phenotype; format: in vivo, human
# Protocol: A phase 2 clinical trial is run to determine whether melanoma tumor microenvironment phenotypes correlate to clinical responses when patients are treated with adjuvant Bavituximab and radiation following neoadjuvant immune checkpoint inhibitor treatment and surgical resection of stage 2b lymph nodes. The analysis includes samples from 20 patients. RNA gene signatures are analyzed from tumor samples acquired as surgical resections and TME phenotypes are determined. Patients are followed for ORR.
# Melanoma patients receive a course of neoadjuvant immune checkpoint inhibitor (anti-PD-(L)1—i.e., an inhibitor to PD-1 or PD-L1) therapy and their stage 2b lymph nodes are resected. Radiation and Bavituximab are given as adjuvant therapy. The TME phenotypes from resected tumor samples are correlated to ORR. […] (20) patients are enrolled, with equal representation across the 4 stromal phenotypes (5 in each phenotype). The correlation between each TME phenotype is tested against clinical outcome data. In biomarker positive patients, represented by immune active (IA) and immune suppressed (IS) phenotypes, the use of the regimen of Bavituximab/radiation confers benefit in comparison to patients classified as biomarker negative, comprised of angiogenic (A) and immune desert (ID) TME phenotype classes, as shown in the TABLE 33.
# [5] = PARP resistant cohort, n = 20 per treatment group
molecule,measurement,setting,value
CNC(=O)c1cc(Oc2ccc(NC(=O)Nc3ccc(Cl)c(C(F)(F)F)c3)c(F)c2)ccn1 [regorafenib],median OS (mOS),[1],~7 months
same,median PFS (mPFS),[1],~2 months
trifluoridine/tipiracil,median OS (mOS),[1],~7 months
same,median PFS (mPFS),[1],~2 months
B1,Overall response rate (ORR),"[2]; PARP naiive cohort, n = 20 per treatment group",65%
same,Overall response rate (ORR),[2]; [5],40%
B2,Overall response rate (ORR),"[3]; Platinum-sensitive cohort, n = 20 per treatment group",80%
B3,Overall response rate (ORR),"[3]; Platinum-resistant cohort, TME phenotype A (n = 5)",40
same,Overall response rate (ORR),"[3]; Platinum-resistant cohort, TME phenotype IA (n = 5)",60
same,Overall response rate (ORR),"[3]; Platinum-resistant cohort, TME phenotype ID (n = 5)",0
same,Overall response rate (ORR),"[3]; Platinum-resistant cohort, TME phenotype IS (n = 5)",80
same,Overall response rate (ORR),"[3]; Platinum-sensitive cohort, TME phenotype A (n = 5)",100
same,Overall response rate (ORR),"[3]; Platinum-sensitive cohort, TME phenotype IA (n = 5)",80
same,Overall response rate (ORR),"[3]; Platinum-sensitive cohort, TME phenotype ID (n = 5)",60
same,Overall response rate (ORR),"[3]; Platinum-sensitive cohort, TME phenotype IS (n = 5)",80
B4,Overall response rate (ORR),[2]; [5],25%
B5,Overall response rate (ORR),"[2]; PARP naive cohort, TME phenotype A (n = 5)",100
same,Overall response rate (ORR),"[2]; PARP naive cohort, TME phenotype IA (n = 5)",40
same,Overall response rate (ORR),"[2]; PARP naive cohort, TME phenotype ID (n = 5)",40
same,Overall response rate (ORR),"[2]; PARP naive cohort, TME phenotype IS (n = 5)",80
same,Overall response rate (ORR),"[2]; PARP resistant cohort, TME phenotype A (n = 5)",60
same,Overall response rate (ORR),"[2]; PARP resistant cohort, TME phenotype IA (n = 5)",20
same,Overall response rate (ORR),"[2]; PARP resistant cohort, TME phenotype ID (n = 5)",20
same,Overall response rate (ORR),"[2]; PARP resistant cohort, TME phenotype IS (n = 5)",60
B6,Overall response rate (ORR),"[3]; Platinum-resistant cohort, n = 20 per treatment group",45%
B7,ORR (%),[4]; A (n = 10),0%
same,PFS % at 20 weeks,[4]; A (n = 10),0%
same,ORR (%),[4]; IA (n = 10),90%
same,PFS % at 20 weeks,[4]; IA (n = 10),100%
same,ORR (%),[4]; ID (n = 10),0%
same,PFS % at 20 weeks,[4]; ID (n = 10),0%
same,ORR (%),[4]; IS (n = 10),90%
same,PFS % at 20 weeks,[4]; IS (n = 10),100%
B8,Overall response rate (ORR),melanoma; Biomarker Negative (n = 10),60%
same,Overall response rate (ORR),melanoma; Biomarker Positive (n = 10),90%
same,Overall response rate (ORR),melanoma; TME phenotype A (n = 5),60%
same,Overall response rate (ORR),melanoma; TME phenotype IA (n = 5),80%
same,Overall response rate (ORR),melanoma; TME phenotype ID (n = 5),60%
same,Overall response rate (ORR),melanoma; TME phenotype IS (n = 5),100%
